# Results reported in the nanobody polyreactivity screen of Harvey et al. (2022).
# Experiment: yeast display, Sf9 membrane polyspecificity reagent, FACS + sequencing; frameworks hold sequencing errors
# Outline: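 A synthetic nanobody library was expressed on Saccharomyces cerevisiae BJ5465 by galactose induction for 36–48 hours. The library was stained for 1 hour at 4 °C with 10% biotinylated, detergent-solubilized Sf9 membrane reagent and enriched with streptavidin microbeads before FACS. Low and high (top ~1%) gates were set on anti-HA fluorescence for expression and streptavidin fluorescence for reagent binding, and each polyreactivity label reflects the gate of origin.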
row,Sequence,polyreactivity (PSR sort gate)
1,QVQLVESGGGLVQAGGSLRLSCAASGRTFYQYTMGWYRQAPGKERELVATISDSTNYADSVKGRFTISRDNAKNTVYLQMNSLKPEDTAVYYCNARVRGLGKYESWGQGTQVTVSS,low polyreactivity
2,QVQLVESGGGLVQAGGSLRLSCAASGYTIRYNALGWYRQAPGKERELVAAITQRSGSTYADSVKGRFTISRDNAKNTVYLQMNSLKPEDTAVYYCAARTPGYKLYDYWGQGTQVTVSS,low polyreactivity
3,QLQLVESGGGLVQAGGSLRLTCAASGSTFTKYDMGWYRQAPGKERELVAAIRSGGDTNYADSVKGRFTISRDNAKYTVYLQMNSLKPEDTAVYYCNTLRNWYYQFDFNYWGQGTQVTVSS,low polyreactivity
4,QVQLVESRGGLVQAGGSLRLSCAASGIIFQSYTMGWYRQAPGKERELVAAISTSGSTYYADSVKGRFTISRDNAKNTVYLQMNSLKPEDTAVYYCATYRYRIWWWGEYDYWGQGTQVTVSS,high polyreactivity
5,QVQLVESGGGLDQAGGSLRLSCAASGSIFYAYAMGWYRQAPGKEREFVAVISRGGITNYADSVKGRFTISRDNAKNTVYLELNSLKPEDTAVYYCAAGTSAWGYLRRYGYWGQGSQVTVSS,low polyreactivity
6,QVQLVESGGGLVQAGGSLRLSCDASGSTFYPNAMGWYRQPPGKERELVAAITDSVCTTNYADSVKGRFTISRDNAKNTVYLQMNSLKPEDTAVYYCAKVKYYWNGYRYYYWGQGTQVTVSS,low polyreactivity
7,QVQLVESGGGLVQAGGSLRLSSAASGSIFVKNARGWYRQAPGKVRELVARISFSGGSTYYADSVKGRFTISRDNAKNTVYLQMNSLKPEDTAVYYCAKTVLRTEYGWWIKFDYWGQVTQVTVSS,low polyreactivity
8,QVQLVESGGGLVQAGGSLRLSCAASGRIYARNAMGWYIQAPGKERELVAAITRGGSTYYADSVKGRFTISRDNAKNTVYLQMNSLKPEDTAVYYCAASYRGSTYKYYYWGQGTQVTVSS,high polyreactivity
9,QVQLVESGGGLVQAGGSLRLSCAASGSTFSRYTMGWYRQAPGKERELVAAISKSGGSTYYADSVKGRFTISRDNAKNTVYLQMNSLKPEDTAVYYCAALVRAGTSLDYDYWGQGTEVTVSS,high polyreactivity
10,QVQLVESGGGLVQAGGSLRLSCAASGFIFIAYAMGWYRQAPGKERELVAAISKSGTRTYYADSVKGRFTISRDNAKNTVYLQMNSLKPEDTAVYYCATYSTYNKGTHGDYWGQGTQVTVSS,high polyreactivity
11,QVQLVESGGGLVQAGGSLRLSCASSGTFHKYAMGWYRQAPGKERELVASISRSGGSTSYADSVKGRFTISRDNAKNNVYLQMNSLKPEDTAVYYCNTPWGAYKYDYWGQGTEVTVSS,high polyreactivity
12,QVQLVESGGGLVQAGGSLRLSCAASGSTSSNNAMGWYRQAPGKERELVADISTNGDSTSYADSVKGRFTISRDNAKNTVYLQMNSLKPEDTAVYYCNKDFVYPDDDGLFDYWGQGTQVTVSS,low polyreactivity
13,QVQLVESGGGLVQAGGSLRLSCAASGSIFRFYGMGWYRQAPGKERELVATISWSSGRTSYADSVKGRFTISRDNAKNTVYLQMKSLKPEDTAVYYCNADQWDKSYDYWGQGTQVTVSS,high polyreactivity
14,QVQLVESGGGLVQAGGSLRLSCAASGSTFGGYAMGWSRQAPGKERELVARITRSGGRTYYADSVKGRFTISRDNAKNTVYLQMNSLKPEDTAVYYCNKQLLISRQIQYEYWGQGTQVTVSS,low polyreactivity
15,QVHLVESGVGLVKAGGTLRLSCAASGGIFIRNAMGWYRQAPGKERELVATISNAGSTYADAVKGRFTISRDNAKNPVHLQMHSLKPEDTAVYYCNRDDWTYPVYQGLQEYDYWGQGTQVSVSS,low polyreactivity
16,QVQLVESGGGLVQAGGSLRLSCAASGFIIFQYAMGLYRQAPGKERELVAAISGSGVTTYYADSVKGRFTISRDNAKNNVYLQMNSLKPEDTAVYYCNAALSWKYDWGQGTQVTVSS,low polyreactivity
17,QVQLVESGGGLVQAGGSLRLSCAASGSTFQPYAMGWYRQAPGKEREFVATISGSAGSTYYADSVKGRFKISRDNAKNTVYLQMNSLKPEDTAVYYCNARPARKSLDYDYWGQGTQVTVSS,low polyreactivity
18,QVQLVESGGGLVQARGSLRLSCAASGIIRSNAMGWYRQAPGKERELVAVISSSGGRTYYADSVKGRFTISRDNAKNTVYLQMTSLKPEDTAVFYCPAQVQVGAFSYYYWGQGTQVTVSS,high polyreactivity
19,QVQLVESVGGLVQAGGSLRLSCAASGRTFRNNAMGWYRQAPGTEREFVAVISNTGGSTYYADSVKGRFTISRDNAKNTVYLQLNSLKPEDTAVYYCAVRPRYSQYYYWGQGTQVTVSS,high polyreactivity
20,QVQLVESGGGLVQAGGSLRLSCAASGRIFVTNAMGWSRQGPGKERELVAAISYRGGRTYYADSVKGRFTISRDNAKNTVYLQMNSLKPEDTAVYYCNAVTRWPFDYWGQGTQVTVSS,high polyreactivity
21,QVQLVESGGGLVQAGGSLRLSCAASGLTFSPNAMGWYRQAPGKERELVAAITRSGSTTHYADSVKGRFTISRDNAKNTVYLQMNSLKPEDTAVYYCARRYYGPYDYWGQGTQVTVSS,high polyreactivity

row,Sequence,polyreactivity (PSR sort gate)
1,QFQLVDSGGGLVQAGASLRLSCAASGFIFEWYTIGWSREAPGTAREFVARISSDGSTTYADSVKGRFTSSRDNAKNTVYLQMNSLKPEDTAVYYCADDVSYPGQKYIFDDWGQCTQVTVSS,low polyreactivity
2,QVQLVESGGGLVQAGGSLRLSCAASGSTFRLYAMGWYRQAPGKERELVAAISSRGGTTYYADSVKGRFTISRDNAKNTVYLQMNSLKPEDTAVYYCAAPRASQYGDDYWGQGTQVTVSS,high polyreactivity
3,QVQLVESGGGLVQAGGSLRLSCAASGSTFLLYAMGWYRQEPGKERELVAAITWSGASTYYADSVKGRFTISRDNAKNTVYLQMNSLKPEDTAVYYCATRYRYRYWGQGTQVTVSS,high polyreactivity
4,QVQLVESGGGLVQAGGSLRLSCAASGSIFHKNAMGWYRPAPGNERELVATITSDGSTNYADSVKGRFTISRDNEKNTVYLQMNSLKPEDTAVYDCAAYSQVGGYDYWGQGTQVTVSS,low polyreactivity
5,QVQLVESGGGLVQAGGSLRLSCAASGIIFRQYAMGWYRQAPGKERELVAGISSRGGSTYYADSVKGRFTISRDNAKNTVYLQMNSLKPEDTAVYYCAARYPGYFYHLDYWGQGTQVTVSS,low polyreactivity
6,QVQLVDSGGGLVQAGGSLRLSCAASGFIFKGNAMGWSRQAPGKERELVAAISRSGGRTYYADSVKGRFTISRENAKNTVYLEMNSLKPEDTAVYYGATEGDSFSAYDYWVQGTQVTVSS,high polyreactivity
7,QVQLVESGGGVVQAGGSLRLSCAGSGRTFPYYAVGWYRQAPGKERELVAVISSADSTNYADSVKGRFTISRDNAKNTVYLQMNSLKPEDTAVYYCADDAVYYGDDYWGQGTQVTVSS,low polyreactivity
8,QVQLVESGGGLVQAGGSLRLSCAASGSIYQNAMGWYRQAPGKQRELVAAITSSGGRTYADSVKGRFTISRDNAKNTVYLQMNSLIPEDTAVYYCAKDSTADELNGFDYWGQGTQVTVSS,low polyreactivity
9,QVKLVESGGGLVQAGGSLRLSCAASGSIFLSYAMGWYRQAPGKDRELVAAISGGGGSTYYADSVKGRFTISRDNAKNTVYLQMNSLKPEDTAVYYCAADYYYGDALSPYYPHWDFYYWGQGTQVTVSS,low polyreactivity
10,QVQLVESVGGLVQAGGTLSLSCAASGFTFRNYAMGWYRQAPRKEREFVAAISRRGGSTYYADSVKGRITISRDNAKNTVYLQINSLKPEDSAVYYCATEPGKQNTYRMDYCGQGTQVTVSS,high polyreactivity
11,QVQLVESGGGLVQAGGSLRLSCAASGSIFTRNVMGWSRQAPGKERELVAAITGSGGRTYYADSVKGRFTISRDNAKNTVYLQMNSLKPEDTAVYYCAKSRPGTYDYWGQGTQVTVSS,high polyreactivity
12,QVQLVESGGGLVQAGGSLRLSCAASGFIFPYFAMGWYRQAPGKERELVAAISGSGGSTYYADSVKGRFTISRDNAKNTVYLQMNSLKPEDTAVYYCAASARRLNMGYWGQGTQVTVSS,high polyreactivity
13,QVQLVESRGGLVQAGRSLRLSCAASGITFYSYAMGWYRQEPGKERELVAAITLTGGTTYYADSVKGRFTISRDNAKNTVYLQMNSLKPEDTAVYYCAAQYWWWSRFEYDSCGQGTQVTVSS,low polyreactivity
14,QVQLVESGGGLVQAGGSLRLICAASGSTIGSYVMGWYRTAPGKERELVAAITSGARTNYADSVKGRFTISRDNAKNTVYLQMNSLKPEDTAVYYCAKYYRPAYVYRIAGYYWGQGTQVTVSS,high polyreactivity
15,QDQLVESGGGLVQAGGSLRLSCAASGSITAPYAMGWYRQAPGKERELVAAISYSGGSTNYADSVKGRFTISRDNAKNTVYLQMNSRKPEATAVYYCAARGYSGYRTSPLARYDYWGKGTQVTVSS,high polyreactivity
16,QVQLVESGGGLVQAGGSLRLSCAASGIIIDSNAMGWYRQAPGKERELVAAITSGGSTKYADSVKGRFTISRDNAKNTVYLQMNSLKPEDTAVYYCNADFRQADQCSYFYEMDSWGQGTQVTVSS,low polyreactivity
17,QVQLLESGGGLVQAGGSLRLSCAASGRIYLGYALGWYRQAPGKERELVAAITSSGGYTYYADSVKGRFTISLDNAKNTVYLQMNSLKPEDTAVYYCNVYRFGWWYTNDYWGQGTQVTVSS,high polyreactivity
18,QVQLVESGGGLDQAGGSLRLSCAASVSTFDAYAMVWSTQAPGQERELVAAISSSAASTSYADSVKGRFTISRDNAKNTVYVQMNSLKPEDTAFYYCAARPYRRPWYRGRYYYWGQGTQVTVSS,high polyreactivity
19,QVQLVESGGGLVQAGGSLRLSCAASGSTFDSYAMGWSRQAPGKERELVARINDSGGSTYYADSVKGRFTISRDNAKNTVYLHMNSLKPEDTAVYYCNAYSWYFLPNMDYWGQGTQVTVSS,low polyreactivity
20,QLQLVESGGGLVQAGGSLRLSCAASGSTFTWKAMGWYRQAPGKERELVAAITSGCRTYYADSVKGRFTISRDNAKNTVYIEMNSLKPEDTAVYYCAAKVRHYYSASNYYYWGQGTQVTVSS,high polyreactivity
